T1: P8 polypeptide with site 10 (R) mutated to alanine (human)
T1 construct: also called P8 R10A
T1 peptide: RLLEMEFEEAKRAAE

T2: P8 polypeptide with site 7 (F) mutated to alanine (human)
T2 construct: also called P8 F7A
T2 peptide: RLLEMEAEERKRAAE

T3: P8 polypeptide with site 3 (L) mutated to alanine (human)
T3 construct: also called P8 L3A
T3 peptide: RLAEMEFEERKRAAE

T4: P8 polypeptide with site 2 (L) mutated to alanine (human)
T4 construct: also called P8 L2A
T4 peptide: RALEMEFEERKRAAE

T5: P8 polypeptide with site 1 (R) mutated to alanine (human)
T5 construct: also called P8 R1A
T5 peptide: ALLEMEFEERKRAAE

T6: P8 polypeptide with site 11 (K) mutated to alanine (human)
T6 construct: also called P8 K11A
T6 peptide: RLLEMEFEERARAAE

T7: P8 polypeptide with site 6 (E) mutated to alanine (human)
T7 construct: also called P8 E6A
T7 peptide: RLLEMAFEERKRAAE

T8: P8 polypeptide with site 15 (E) mutated to alanine (human)
T8 construct: also called P8 E15A
T8 peptide: RLLEMEFEERKRAAA

T9: P8 polypeptide with site 4 (E) mutated to alanine (human)
T9 construct: also called P8 E4A
T9 peptide: RLLAMEFEERKRAAE

T10: P8 polypeptide with site 12 (R) mutated to alanine (human)
T10 construct: also called P8 R12A
T10 peptide: RLLEMEFEERKAAAE

T11: P8 polypeptide with site 9 (E) mutated to alanine (human)
T11 construct: also called P8 E9A
T11 peptide: RLLEMEFEARKRAAE

T12: P8 polypeptide with site 5 (M) mutated to alanine (human)
T12 construct: also called P8 M5A
T12 peptide: RLLEAEFEERKRAAE

T13: P8 polypeptide with site 8 (E) mutated to alanine (human)
T13 construct: also called P8 E8A
T13 peptide: RLLEMEFAERKRAAE

T14: ITPRIPL1 P8 polypeptide (human)
T14 construct: also called human ITPRIPL1 P8 polypeptide; polypeptide segment P8
T14 peptide: RLLEMEFEERKRAAE

T15: NRP2 extracellular domain protein with hFc (Sino Biological) (UniProt O60462 21-864)
T15 chain: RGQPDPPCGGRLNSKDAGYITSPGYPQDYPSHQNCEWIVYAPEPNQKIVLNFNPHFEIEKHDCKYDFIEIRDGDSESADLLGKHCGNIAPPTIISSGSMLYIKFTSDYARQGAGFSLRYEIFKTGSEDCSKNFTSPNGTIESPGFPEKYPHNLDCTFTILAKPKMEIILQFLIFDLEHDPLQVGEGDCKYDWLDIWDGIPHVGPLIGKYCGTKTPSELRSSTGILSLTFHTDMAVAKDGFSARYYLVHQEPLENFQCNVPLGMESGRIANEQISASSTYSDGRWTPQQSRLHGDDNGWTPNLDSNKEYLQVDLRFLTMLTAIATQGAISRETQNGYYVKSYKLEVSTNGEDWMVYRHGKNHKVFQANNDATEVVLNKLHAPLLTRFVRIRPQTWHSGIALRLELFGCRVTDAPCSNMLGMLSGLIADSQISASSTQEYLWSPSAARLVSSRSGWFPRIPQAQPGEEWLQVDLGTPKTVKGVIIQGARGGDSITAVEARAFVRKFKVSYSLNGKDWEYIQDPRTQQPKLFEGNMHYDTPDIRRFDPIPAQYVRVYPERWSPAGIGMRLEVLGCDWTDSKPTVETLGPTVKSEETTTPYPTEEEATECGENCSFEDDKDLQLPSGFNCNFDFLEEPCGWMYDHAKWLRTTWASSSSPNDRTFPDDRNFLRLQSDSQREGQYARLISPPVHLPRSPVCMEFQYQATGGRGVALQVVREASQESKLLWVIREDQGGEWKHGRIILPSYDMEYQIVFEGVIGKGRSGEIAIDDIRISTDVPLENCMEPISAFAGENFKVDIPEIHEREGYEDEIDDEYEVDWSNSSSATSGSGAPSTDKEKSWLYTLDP

T16: CD3E-human Fc protein (Sino Biological) (UniProt P07766 23-126)
T16 chain: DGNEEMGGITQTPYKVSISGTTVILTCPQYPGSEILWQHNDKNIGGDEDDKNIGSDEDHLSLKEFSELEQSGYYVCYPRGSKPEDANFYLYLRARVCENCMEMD

T17: CD3ε (Met1-Asp126) protein with hFc tag (Sino Biological) (UniProt P07766 22-126)
T17 chain: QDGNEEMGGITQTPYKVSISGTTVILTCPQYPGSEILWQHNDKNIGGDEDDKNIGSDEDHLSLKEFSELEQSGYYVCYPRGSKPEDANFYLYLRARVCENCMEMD


Columns and labels:
[1] = molecular target: T1, P8 polypeptide with site 10 (R) mutated …; assay: ELISA, peptide coated at 1 µg/ml
[2] = molecular target: T2, P8 polypeptide with site 7 (F) mutated …; assay: ELISA, peptide coated at 1 µg/ml
[3] = molecular target: T3, P8 polypeptide with site 3 (L) mutated …; assay: ELISA, peptide coated at 1 µg/ml
[4] = molecular target: T4, P8 polypeptide with site 2 (L) mutated …; assay: ELISA, peptide coated at 1 µg/ml, antibody at 1 µg/ml
[5] = molecular target: T5, P8 polypeptide with site 1 (R) mutated …; assay: as above
[6] = molecular target: T6, P8 polypeptide with site 11 (K) mutated …; assay: as above
[7] = molecular target: T7, P8 polypeptide with site 6 (E) mutated …; assay: as above
[8] = molecular target: T8, P8 polypeptide with site 15 (E) mutated …; assay: as above
[9] = molecular target: T9, P8 polypeptide with site 4 (E) mutated …; assay: as above
[10] = molecular target: T10, P8 polypeptide with site 12 (R) mutated …; assay: as above
[11] = molecular target: T11, P8 polypeptide with site 9 (E) mutated …; assay: as above
[12] = molecular target: T12, P8 polypeptide with site 5 (M) mutated …; assay: as above
[13] = molecular target: T13, P8 polypeptide with site 8 (E) mutated …; assay: as above
[14] = molecular target: T14, ITPRIPL1 P8 polypeptide; assay: ELISA, peptides coated at 1 µg/ml, antibody at 1 µg/ml
[15] = molecular target: T15, NRP2 extracellular domain protein with …; assay: ELISA
[16] = molecular target: T18, HA-tagged CD3ε (expressed from pcDNA3.1 in transfected HCT116 cells) (human, UniProt P07766 23-207); assay: flow cytometry on HCT116-CD3ε cells, 1-4 µg/ml protein, anti-6x-His-FITC
T18 construct: whole, on cells; also called CD3ε-HA; CD3E-HA; not shown: HA tag

[17] = molecular target: T16, CD3E-human Fc protein (Sino Biological); assay: BLI (Octet)
[18] = molecular target: T17, CD3ε (Met1-Asp126) protein with hFc tag …; assay: ELISA

| binding result [1] | binding result [2] | binding result [3] | binding result [4] | binding result [5] | binding result [6] | binding result [7] | binding result [8] | binding result [9] | binding result [10] | binding result [11] | binding result [12] | binding result [13] | binding result [14] | EC50 [15] [µg/mL] | binding result [16] | Kd [17] [nM] | EC50 [18] [µg/mL] | Binder |
| --- | --- | --- | --- | --- | --- | --- | --- | --- | --- | --- | --- | --- | --- | --- | --- | --- | --- | --- |
| no binding (tested: 1 µg/ml) | no binding (tested: 1 µg/ml) | no binding (tested: 1 µg/ml) | binds | binds | binds | binds | binds | binds | binds | binds | binds | binds | binds |  |  |  |  | monoclonal antibody 13B7A6H3 (antibody, mouse IgG1, kappa, V domains shown, Mouse hybridoma monoclonal; also called 13B7A6H3 monoclonal antibody) VH: QVQLQQSGPELVKPGASVRMSCKTSGYTFTDYVISWVKQRPGQGLEWIGEIFPRTGSTYYNENFKATATLTADKSSNTAYMQLSSLTSEDSAAYFCAFITSVDWAMEYWGQGTSVTVSS VL: DVVMTQTPLSLPVSLGDQASISCRSSESLVNSKGNTHLHWYLQKPGQSPKLLIYKVSNRFSGVPDRFSGSGSGTDFTLKISRVEAEDLGVYFCSQSTHAPYTFGGGTKLEIKR |
|  |  |  |  |  |  |  |  |  |  |  |  |  |  | 0.418 | binds | 318 | 0.255 | ITPRIPL1-RBD recombinant protein (human ITPRIPL1 extracellular domain, 25-103 amino acids, C-terminal 6x-His and Myc tags, Cusabio, from yeast) (ligand, also called IT1-RBD protein; ITPRIPL1-RBD-6x-His recombinant protein; not shown: 6x-His and Myc tags at the C terminus) HPLMVSDRMDLDTLARSRQLEKRMSEEMRLLEMEFEERKRAAEQRQKAENFWTGDTSSDQLVLGKKDMGWPFQADGQEG |
